For orientation: Kd means the free concentration of one partner at which half of the binding sites on the other are occupied at equilibrium, for simple one-to-one binding. Low values mean a tighter complex, high ones a looser complex.

Where “and” joins values, the source holds several entries; their conditions need not be identical. Equal values may be shown once.

The source of these data is patent publication CN101223191A (AGENSYS INC, dated 2008).

The target of assay [1] is T1, human PSCA (prostate stem cell antigen, PSCA v.1) (human, UniProt O43653 12-83).
T1 construct: The whole entry is named; also called PSCA变体1; 细胞表面PSCA
T1 sequence: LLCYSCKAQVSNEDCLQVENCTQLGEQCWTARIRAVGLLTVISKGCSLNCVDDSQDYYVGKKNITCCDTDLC
The experiment in a line: FACS saturation binding on LAPC9AI cells, one-site binding (hyperbola) fit, Graphpad Prism.

The target of assay [2] is T1, human PSCA (prostate stem cell antigen, …). The experiment in a line: FACS-based affinity on cell-surface PSCA (LAPC9AI cells).

B1: anti-PSCA MAb H1-1.10 (antibody, V domains shown)
VH: QLQESGPGLVKPSQTLSLTCTVSGGSISSGGYYWSWIRQHPGKGLEWIGYIYYSGSTYYNPSLKSRVTISVDTSKNQFSLKLSSGTAADTAVYYCARDHITMVRGVPKGMDVWGQGTTVTVSS
VL: QLTQSPSSLSASVGDRVTITCRASQSISRHLNWYQQKPGKAPKFLIYVASSLQSGVPSRFSGSGSGTDFTLTISSLQPEDFATYFCQQSYSIPRTFGQGTKVEIKR
notes: Fully human IgG1 (gamma 1) / kappa antibody from XenoMouse immunised with B300.19/PSCA cells; tested as hybridoma supernatant or purified antibody; also called PSCA H1-1.10; H1/1.10.1.1
In the case of B1, the equilibrium dissociation constant (Kd) in assay [1] was 0.593 nM and 0.636 nM; in assay [2], 0.6 nM.
